This note sets out measurements from patent publication US20230357367A1 (GENERATE BIOMEDICINES, published 2023).

The target of assay [1] is SARS-CoV-1 spike trimer (recombinant) (SARS-CoV-1, UniProt P59594 14-1195).
The target of assay [2] is T1, SARS-CoV-1 Spike on pseudovirus (SARS-CoV-1, UniProt P59594 14-1255). In words: cell-based or functional assay.
The target in assay [3] is T2, WIV1 Spike on pseudovirus (WIV1 (bat SARS-like coronavirus)). In words: cell-based or functional assay.
The target of assay [4] is T1, SARS-CoV-1 Spike on pseudovirus. The assay can be described thus: cell-based or functional assay. This is another data set of the same source.
Assay [5] has as its target T2, WIV1 Spike on pseudovirus. The assay can be described thus: cell-based or functional assay. The source holds these as a separate data set.
Assay [6] has as its target T1, SARS-CoV-1 Spike on pseudovirus. The assay can be described thus: cell-based or functional assay. The source holds these as a separate data set.
For assay [7], the target named is T2, WIV1 Spike on pseudovirus. In words: cell-based or functional assay. This is another data set of the same source.

Read-outs that look alike come from different tables or passages of the source.

B1: AB-1 (antibody, V domains shown)
VH: EVQLVESGAEVKKPGESLKISCKGSGYTFTRYWIGWVRQMPGKGLEWMGIIYPGDSDVRYSPSFQGHVTISADKSISTAYLQWNSLKASDTAMYYCARLPQYCSKGVCYRWFDPWGQGTLVTVSS
VL: EIVLTQSPSSVSASVGDRVTITCRASQGISSWLAWYQQKPGKAPKLLIYAASSLQSGVPSRFSGSGSGTDFTLTISSLQPEDFATYYCQQGHSFPYTFGQGTNLEIK
In general, EC50 refers to the concentration that produces a half-maximal response. For B1, the EC50 in assay [1] was 0.065 µg/mL. Besides, the “IC50, pseudovirus neutralization” value in assay [2] was determined as 0.04 µg/mL; in assay [3] it was 0.069 µg/mL; in assay [4], 0.009 µg/mL; in assay [5], 0.0139 µg/mL. Further, the “% neutralization at 4.5 µg/ml, pseudovirus” value was 99% in assay [6] and 101% in assay [7].
